The assay has as its target Flag-tagged PKM2 (pyruvate kinase M2) (human, UniProt P14618-1 1-531, labeled with fluorescence (in the MST assay only)). Nature of the assay: MST.

Consider one molecule from publication PMC9491720 (Science Advances, 2022).

Sequence of Flag-tagged PKM2 (pyruvate kinase M2) (P14618 whole entry): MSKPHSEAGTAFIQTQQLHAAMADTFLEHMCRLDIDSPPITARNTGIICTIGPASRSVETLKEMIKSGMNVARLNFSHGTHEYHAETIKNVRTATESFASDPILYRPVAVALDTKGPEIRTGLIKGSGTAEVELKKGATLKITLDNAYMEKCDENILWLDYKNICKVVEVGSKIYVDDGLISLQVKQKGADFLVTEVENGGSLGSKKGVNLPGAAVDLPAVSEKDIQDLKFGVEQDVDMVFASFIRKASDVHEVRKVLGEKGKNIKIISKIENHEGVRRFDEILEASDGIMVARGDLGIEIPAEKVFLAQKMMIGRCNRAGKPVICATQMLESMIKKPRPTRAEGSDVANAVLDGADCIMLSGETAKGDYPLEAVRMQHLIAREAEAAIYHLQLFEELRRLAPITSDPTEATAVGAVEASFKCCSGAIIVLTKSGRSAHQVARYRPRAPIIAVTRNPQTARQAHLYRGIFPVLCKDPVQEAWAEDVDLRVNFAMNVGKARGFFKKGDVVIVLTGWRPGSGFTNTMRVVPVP

B1: recombinant His-tagged Smad7 (natural protein)
chain: MFRTKRSALVRRLWRSRAPGGEDEEEGAGGGGGGGELRGEGATDSRAHGAGGGGPGRAGCCLGKAVRGAKGHHHPHPPAAGAGAAGGAEADLKALTHSVLKKLKERQLELLLQAVESRGGTRTACLLLPGRLDCRLGPGAPAGAQPAQPPSSYSLPLLLCKVFRWPDLRHSSEVKRLCCCESYGKINPELVCCNPHHLSRLCELESPPPPYSRYPMDFLKPTADCPDAVPSSAETGGTNYLAPGGLSDSQLLLEPGDRSHWCVVAYWEEKTRVGRLYCVQEPSLDIFYDLPQGNGFCLGQLNSDNKSQLVQKVRSKIGCGIQLTREVDGVWVYNRSSYPIFIKSATLDNPDSRTLLVHKVFPGFSIKAFDYEKAYSLQRPNDHEFMQQPWTGFTVQISFVKGWGQCYTRQFISSCPCWLEVIFNSR
Usually Kd stands for the equilibrium constant for the complex coming apart. As for B1, the Kd stood at 346 nM. This counts as sub-micromolar.
